Reference: IntAct's records for PubMed 19103591

B1: Anti-sigma-E factor RseA (Escherichia coli (strain K12)), P0AFX7 (parent)
chain: MQKEQLSALMDGETLDSELLNELAHNPEMQKTWESYHLIRDSMRGDTPEVLHFDISSRVMAAIEEEPVRQPATLIPEAQPAPHQWQKMPFWQKVRPWAAQLTQMGVAACVSLAVIVGVQHYNGQSETSQQPETPVFNTLPMMGKASPVSLGVPSEATANNGQQQQVQEQRRRINAMLQDYELQRRLHSEQLQFEQAQTQQAAVQVPGIQTLGTQSQ
partner: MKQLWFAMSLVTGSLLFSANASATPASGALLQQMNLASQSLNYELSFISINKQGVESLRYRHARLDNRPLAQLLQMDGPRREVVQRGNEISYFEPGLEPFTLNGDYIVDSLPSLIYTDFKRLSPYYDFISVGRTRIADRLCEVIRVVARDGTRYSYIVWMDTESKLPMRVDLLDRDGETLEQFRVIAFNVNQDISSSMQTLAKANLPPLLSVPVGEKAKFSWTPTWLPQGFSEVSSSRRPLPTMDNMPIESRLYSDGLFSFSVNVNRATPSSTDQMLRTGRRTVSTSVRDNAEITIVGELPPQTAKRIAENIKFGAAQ
B2: Sigma-E factor regulatory protein RseB (Escherichia coli (strain K12)), P0AFX9 (parent)
chain: B1 partner
partner: B1 chain

Variants of: B1
Conditions: with rseb_ecoli rseB

Row | Variant | effect of a mutation on the interaction
1 | L177A | decreasing interaction
2 | Q178A | decreasing interaction
3 | D179A | decreasing interaction
4 | E181A | decreasing interaction
5 | Y180A | decreasing interaction
6 | M176A | decreasing interaction
7 | N174A | decreasing interaction

Second part, the variant after the results:

Row | effect of a mutation on the interaction | Variant
8 | decreasing interaction | Q183A
9 | decreasing interaction | H187A
10 | decreasing interaction | L182A
11 | decreasing interaction | R185A
12 | decreasing interaction | S188A
13 | decreasing interaction | L186A

Variants of: B1
Conditions: with rseb_ecoli rseB
Remark: another data set of the same source

Row | effect of a mutation on the interaction | Variant
14 | increasing interaction strength | D179C
15 | increasing interaction strength | L186C
16 | increasing interaction strength | I173C

Variants of: B1
Conditions: with rseb_ecoli rseB
Remark: another data set of the same source

Row | effect of a mutation on the interaction | Variant
17 | increasing interaction strength | H187C

Variants of: B1
Conditions: with rseb_ecoli rseB
Remark: another data set of the same source

Row | effect of a mutation on the interaction | Variant
18 | decreasing interaction | I173A
19 | decreasing interaction | E189A

Variants of: B2
Conditions: with rsea_ecoli rseA

Row | Variant | effect of a mutation on the interaction
20 | D176A | decreasing interaction
21 | D171A | decreasing interaction
22 | E178A | decreasing interaction

Next, values leading:

Row | effect of a mutation on the interaction | Variant
23 | decreasing interaction | Q182A
24 | decreasing interaction | R238A;R239A
25 | decreasing interaction | D245A;N246A;I249A;E250A
26 | decreasing interaction | I249A;E250A
27 | decreasing interaction | I249A
28 | decreasing interaction | E250A

Variants of: B2
Conditions: with rsea_ecoli rseA
Remark: another data set of the same source

Row | effect of a mutation on the interaction | Variant
29 | decreasing interaction | D174A
30 | decreasing interaction | E181A
